Measured values taken from FireProtDB (doi:10.1016/j.jmb.2007.09.088).

Details: Niallia circulans; pH 5; 25 °C; Urea; Fluorescence; Sodium acetate 50mM; transition: 2; reversible: yes; structure 1K85

Sequence of Chitinase A1 Y620F, P20533 (P20533 whole entry Y620F): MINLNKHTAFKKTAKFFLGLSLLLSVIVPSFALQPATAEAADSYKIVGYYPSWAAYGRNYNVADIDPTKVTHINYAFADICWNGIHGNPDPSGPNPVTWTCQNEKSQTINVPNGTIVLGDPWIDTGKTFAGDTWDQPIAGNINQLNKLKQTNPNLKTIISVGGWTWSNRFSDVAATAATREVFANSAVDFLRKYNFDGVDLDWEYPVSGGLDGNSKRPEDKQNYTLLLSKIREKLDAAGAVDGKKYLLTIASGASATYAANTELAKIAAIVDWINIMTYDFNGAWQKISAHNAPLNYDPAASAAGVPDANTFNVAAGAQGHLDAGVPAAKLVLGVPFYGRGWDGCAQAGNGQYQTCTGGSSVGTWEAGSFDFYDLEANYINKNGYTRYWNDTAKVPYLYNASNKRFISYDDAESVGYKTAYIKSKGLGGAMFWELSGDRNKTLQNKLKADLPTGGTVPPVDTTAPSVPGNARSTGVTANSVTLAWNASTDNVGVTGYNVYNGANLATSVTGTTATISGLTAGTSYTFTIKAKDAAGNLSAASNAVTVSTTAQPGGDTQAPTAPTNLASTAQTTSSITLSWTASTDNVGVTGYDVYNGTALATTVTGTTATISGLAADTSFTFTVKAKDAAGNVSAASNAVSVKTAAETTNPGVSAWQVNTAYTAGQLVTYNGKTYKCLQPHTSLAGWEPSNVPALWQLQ
Sequence of Chitinase A1 Y592L, P20533 (P20533 whole entry Y592L): as the sequence (P20533 whole entry Y620F) above, with Y592L, F620Y counted along it
Sequence of Chitinase A1 A626G, P20533 (P20533 whole entry A626G): as the sequence (P20533 whole entry Y620F) above, with F620Y, A626G counted along it
Sequence of Chitinase A1 V589A, P20533 (P20533 whole entry V589A): as the sequence (P20533 whole entry Y620F) above, with V589A, F620Y counted along it
Sequence of Chitinase A1 V624A, P20533 (P20533 whole entry V624A): as the sequence (P20533 whole entry Y620F) above, with F620Y, V624A counted along it
Sequence of Chitinase A1 L566A, P20533 (P20533 whole entry L566A): as the sequence (P20533 whole entry Y620F) above, with L566A, F620Y counted along it
Sequence of Chitinase A1 Y592F, P20533 (P20533 whole entry Y592F): as the sequence (P20533 whole entry Y620F) above, with Y592F, F620Y counted along it
Sequence of Chitinase A1 L614A, P20533 (P20533 whole entry L614A): as the sequence (P20533 whole entry Y620F) above, with L614A, F620Y counted along it
Sequence of Chitinase A1 V604A, P20533 (P20533 whole entry V604A): as the sequence (P20533 whole entry Y620F) above, with V604A, F620Y counted along it
Sequence of Chitinase A1 V640A, P20533 (P20533 whole entry V640A): as the sequence (P20533 whole entry Y620F) above, with F620Y, V640A counted along it
Sequence of Chitinase A1 T602A, P20533 (P20533 whole entry T602A): as the sequence (P20533 whole entry Y620F) above, with T602A, F620Y counted along it
Sequence of Chitinase A1 N596A, P20533 (P20533 whole entry N596A): as the sequence (P20533 whole entry Y620F) above, with N596A, F620Y counted along it
Sequence of Chitinase A1 V642A, P20533 (P20533 whole entry V642A): as the sequence (P20533 whole entry Y620F) above, with F620Y, V642A counted along it
Sequence of Chitinase A1 I611A, P20533 (P20533 whole entry I611A): as the sequence (P20533 whole entry Y620F) above, with I611A, F620Y counted along it
Sequence of Chitinase A1 S568A, P20533 (P20533 whole entry S568A): as the sequence (P20533 whole entry Y620F) above, with S568A, F620Y counted along it
Sequence of Chitinase A1 I576A, P20533 (P20533 whole entry I576A): as the sequence (P20533 whole entry Y620F) above, with I576A, F620Y counted along it
Sequence of Chitinase A1 S637A, P20533 (P20533 whole entry S637A): as the sequence (P20533 whole entry Y620F) above, with F620Y, S637A counted along it
Sequence of Chitinase A1 A609G, P20533 (P20533 whole entry A609G): as the sequence (P20533 whole entry Y620F) above, with A609G, F620Y counted along it
Sequence of Chitinase A1 Y620L, P20533 (P20533 whole entry Y620L): as the sequence (P20533 whole entry Y620F) above, with F620L counted along it
Sequence of Chitinase A1 F622L, P20533 (P20533 whole entry F622L): as the sequence (P20533 whole entry Y620F) above, with F620Y, F622L counted along it
Sequence of Chitinase A1 L578A, P20533 (P20533 whole entry L578A): as the sequence (P20533 whole entry Y620F) above, with L578A, F620Y counted along it
Sequence of Chitinase A1 V594A, P20533 (P20533 whole entry V594A): as the sequence (P20533 whole entry Y620F) above, with V594A, F620Y counted along it

Going from Chitinase A1 A609G, P20533 to Chitinase A1 A626G, P20533, the “ddG of mutation (higher = less stable)” value falls from 2.33 kcal/mol to 1.88 kcal/mol.

Going from Chitinase A1 F622L, P20533 to Chitinase A1 I576A, P20533, the “ddG of mutation (higher = less stable)” value rises from 2.5 kcal/mol to 3.11 kcal/mol.

Going from Chitinase A1 I611A, P20533 to Chitinase A1 L566A, P20533, the “ddG of mutation (higher = less stable)” value falls from 3.63 kcal/mol to 2.52 kcal/mol.

First: Chitinase A1 L578A, P20533
Second: Chitinase A1 L614A, P20533
The “ddG of mutation (higher = less stable)” value of the first is higher: 5.54 kcal/mol for the first, 5.26 kcal/mol for the second.

Going from Chitinase A1 N596A, P20533 to Chitinase A1 S568A, P20533, the “ddG of mutation (higher = less stable)” value falls from 1 kcal/mol to -0.1 kcal/mol.

Compared with Chitinase A1 S637A, P20533, Chitinase A1 T602A, P20533 is lower in “ddG of mutation (higher = less stable)” value: 1.42 kcal/mol for the first, -1.49 kcal/mol for the second.

First: Chitinase A1 V589A, P20533
Second: Chitinase A1 V594A, P20533
The “ddG of mutation (higher = less stable)” value of the first is lower: 1.77 kcal/mol for the first, 4.19 kcal/mol for the second.

Compared with Chitinase A1 V604A, P20533, Chitinase A1 V624A, P20533 is higher in “ddG of mutation (higher = less stable)” value: 1.58 kcal/mol for the first, 4.07 kcal/mol for the second.

Compared with Chitinase A1 V640A, P20533, Chitinase A1 V642A, P20533 is lower in “ddG of mutation (higher = less stable)” value: 1.66 kcal/mol for the first, 1.44 kcal/mol for the second.

Compared with Chitinase A1 Y592F, P20533, Chitinase A1 Y592L, P20533 is higher in “ddG of mutation (higher = less stable)” value: 1.77 kcal/mol for the first, 5.97 kcal/mol for the second.

First: Chitinase A1 Y620F, P20533
Second: Chitinase A1 Y620L, P20533
The “ddG of mutation (higher = less stable)” value of the first is lower: 1.52 kcal/mol for the first, 4.38 kcal/mol for the second.

Going from Chitinase A1 A609G, P20533 to Chitinase A1 A626G, P20533, the denaturant m value rises from 1.18 kcal/mol/M to 1.22 kcal/mol/M.

Going from Chitinase A1 F622L, P20533 to Chitinase A1 I576A, P20533, the denaturant m value rises from 1.08 kcal/mol/M to 1.15 kcal/mol/M.

Going from Chitinase A1 I611A, P20533 to Chitinase A1 L566A, P20533, the denaturant m value rises from 1.13 kcal/mol/M to 1.19 kcal/mol/M.

Going from Chitinase A1 L578A, P20533 to Chitinase A1 L614A, P20533, the denaturant m value falls from 1.16 kcal/mol/M to 1.13 kcal/mol/M.

Going from Chitinase A1 N596A, P20533 to Chitinase A1 S568A, P20533, the denaturant m value rises from 0.99 kcal/mol/M to 1 kcal/mol/M.

Going from Chitinase A1 S637A, P20533 to Chitinase A1 T602A, P20533, the denaturant m value falls from 1.13 kcal/mol/M to 0.89 kcal/mol/M.

First: Chitinase A1 V589A, P20533
Second: Chitinase A1 V594A, P20533
The denaturant m value of the first is lower: 1.16 kcal/mol/M for the first, 1.27 kcal/mol/M for the second.

Going from Chitinase A1 V604A, P20533 to Chitinase A1 V624A, P20533, the denaturant m value rises from 1.1 kcal/mol/M to 1.19 kcal/mol/M.

First: Chitinase A1 V640A, P20533
Second: Chitinase A1 V642A, P20533
The denaturant m value of the first is higher: 1.22 kcal/mol/M for the first, 1.15 kcal/mol/M for the second.

Going from Chitinase A1 Y592F, P20533 to Chitinase A1 Y592L, P20533, the denaturant m value rises from 1.25 kcal/mol/M to 1.46 kcal/mol/M.

First: Chitinase A1 Y620F, P20533
Second: Chitinase A1 Y620L, P20533
The denaturant m value of the first is higher: 1.31 kcal/mol/M for the first, 1.26 kcal/mol/M for the second.

Chitinase A1 A609G, P20533 and Chitinase A1 A626G, P20533 are within 1.5-fold of each other in “denaturant midpoint (higher = more stable)” value (“denaturant midpoint” below): 4.18 M for the first, 4.57 M for the second.

Chitinase A1 F622L, P20533 and Chitinase A1 I576A, P20533 are within 1.5-fold of each other in “denaturant midpoint” value: 4.03 M for the first, 3.5 M for the second.

Chitinase A1 I611A, P20533 and Chitinase A1 L566A, P20533 are within 1.5-fold of each other in “denaturant midpoint” value: 3.05 M for the first, 4.01 M for the second.

Chitinase A1 L578A, P20533 and Chitinase A1 L614A, P20533 are within 1.5-fold of each other in “denaturant midpoint” value: 1.39 M for the first, 1.63 M for the second.

Chitinase A1 N596A, P20533 and Chitinase A1 S568A, P20533 are within 1.5-fold of each other in “denaturant midpoint” value: 5.33 M for the first, 6.29 M for the second.

Going from Chitinase A1 S637A, P20533 to Chitinase A1 T602A, P20533, the “denaturant midpoint” value rises from 4.97 M to 7.49 M (1.5-fold).

Going from Chitinase A1 V589A, P20533 to Chitinase A1 V594A, P20533, the “denaturant midpoint” value falls from 4.66 M to 2.56 M (1.8-fold).

Compared with Chitinase A1 V604A, P20533, Chitinase A1 V624A, P20533 is 1.8-fold lower in “denaturant midpoint” value: 4.83 M for the first, 2.67 M for the second.

Chitinase A1 V640A, P20533 and Chitinase A1 V642A, P20533 are within 1.5-fold of each other in “denaturant midpoint” value: 4.76 M for the first, 4.95 M for the second.

First: Chitinase A1 Y592F, P20533
Second: Chitinase A1 Y592L, P20533
The “denaturant midpoint” value of the first is 4.6-fold higher: 4.66 M for the first, 1.02 M for the second.

First: Chitinase A1 Y620F, P20533
Second: Chitinase A1 Y620L, P20533
The “denaturant midpoint” value of the first is 2-fold higher: 4.88 M for the first, 2.4 M for the second.

First: Chitinase A1 A609G, P20533
Second: Chitinase A1 A626G, P20533
The unfolding free energy of the first is lower: 4.37 kcal/mol for the first, 4.82 kcal/mol for the second.

First: Chitinase A1 F622L, P20533
Second: Chitinase A1 I576A, P20533
The unfolding free energy of the first is higher: 4.2 kcal/mol for the first, 3.59 kcal/mol for the second.

Going from Chitinase A1 I611A, P20533 to Chitinase A1 L566A, P20533, the unfolding free energy rises from 3.07 kcal/mol to 4.18 kcal/mol.

Going from Chitinase A1 L578A, P20533 to Chitinase A1 L614A, P20533, the unfolding free energy rises from 1.16 kcal/mol to 1.44 kcal/mol.

Compared with Chitinase A1 N596A, P20533, Chitinase A1 S568A, P20533 is higher in unfolding free energy: 5.7 kcal/mol for the first, 6.8 kcal/mol for the second.

Going from Chitinase A1 S637A, P20533 to Chitinase A1 T602A, P20533, the unfolding free energy rises from 5.28 kcal/mol to 8.19 kcal/mol.

Going from Chitinase A1 V589A, P20533 to Chitinase A1 V594A, P20533, the unfolding free energy falls from 4.93 kcal/mol to 2.51 kcal/mol.

First: Chitinase A1 V604A, P20533
Second: Chitinase A1 V624A, P20533
The unfolding free energy of the first is higher: 5.12 kcal/mol for the first, 2.63 kcal/mol for the second.

Compared with Chitinase A1 V640A, P20533, Chitinase A1 V642A, P20533 is higher in unfolding free energy: 5.04 kcal/mol for the first, 5.26 kcal/mol for the second.

Compared with Chitinase A1 Y592F, P20533, Chitinase A1 Y592L, P20533 is lower in unfolding free energy: 4.93 kcal/mol for the first, 0.73 kcal/mol for the second.

First: Chitinase A1 Y620F, P20533
Second: Chitinase A1 Y620L, P20533
The unfolding free energy of the first is higher: 5.18 kcal/mol for the first, 2.32 kcal/mol for the second.
